This is an account of results in the nanobody polyreactivity screen of Harvey et al. (2022).

The data set is described as follows: yeast display, Sf9 membrane polyspecificity reagent, FACS + sequencing; frameworks hold sequencing errors. The gist of the method: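 Genes from sorted yeast were amplified by colony PCR, read by MiSeq 2 × 250 sequencing and filtered on CDR length. These cells carried a synthetic nanobody library in Saccharomyces cerevisiae BJ5465 and were sorted by FACS into low and high (top ~1%) gates on anti-HA and streptavidin fluorescence. Polyreactivity is labelled according to the gate of origin.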
Take “QVQLVESGGGLVQAGGSLRLSCAASGILYYYAMGWYRQAPGKERELVAAITSGGSTNYADSVKGRFTISRDNAKNTVYLQMNSLKPEDTAVYYCNARRWWVIRDYWGQGTQVTVSS”: the “polyreactivity (PSR sort gate)” value was “high polyreactivity”.

Turning to “HVQLVESGGGLVQAGGSLRLSFAASGRIFTHNAMGLYRKAPGKERELVAAITSGGRTTYADSVKGRFTISRDNAKNTVYLQMNSLKPEDTAVYYCNADTGLGSLDFDKRDYWGQGTQVTVSS”, the “polyreactivity (PSR sort gate)” value is given as “low polyreactivity”.

Regarding “QVQLVESGGGLVQAGGSLRLSCAASGSIFYIYAMGWYRQAPGKERELVATISHRGGSTYYADSVKGRFTISRDNAKNTVYLQMNSLKPEDTAVYYCAARSYYSWGRPLPSFNYWGQGTQVTVSS”, the “polyreactivity (PSR sort gate)” value is reported as “high polyreactivity”.

With “QVQLVESGGGLVQAGGSLRLSCAASGSIFVLYAMGWYRQAPGKERELVAAITSGASTNYADSVKGRFTISRDNAKNTVYLQMNSLKPEDTAVYYCNTGSRLDRVDSWGQGTQVTVSS”, the “polyreactivity (PSR sort gate)” value was “low polyreactivity”.

“QVQLVESGGGLVQAGGSLRLICAASGSTFVRNAMGWYRQSPGKEREFVAAIRRSGGSTYYADSVKGRFTISRDNPKNTVYLQINSLKPEDTAVYDCAARNYYTYDYWGQGTQVTVSS”: the “polyreactivity (PSR sort gate)” value is “high polyreactivity”.

As to “QVQLVESGGGLVQAGGSLRLSCAASGRISAFNAMGWYRQAPGKERELVAAINVSGGNTYYADSVKGRFTISRDNAKNTVYLQMNSLKPEDTAVYYCAAERRRWGLDYYYWGQGTQVTVSS”, the “polyreactivity (PSR sort gate)” value was “high polyreactivity”.

For the sequence “QVQLVESGGGLFQAGGSLRLSCAASGRTFEINAMGWYRQAPGKERELVARISWSGGRTYYADSVKGRFTISRDNAKNTVYLQMNSLKPEDTAVYYCAAVLYSGGNYDSWGQGTQVTGSS”, the “polyreactivity (PSR sort gate)” value is recorded as “high polyreactivity”.

On to “QVQLVESGGGLVQAGGSLRLTCAASGITLLYNAMGWYRQAPGKESELVAGITGRGGSTYYADSVKGRFTISRDNAKNTVYLQMNSLKPEDTAVYYCAATTDYRYVGRIVIRDEHWGQGTQVTVSS”, for which the “polyreactivity (PSR sort gate)” value is given as “low polyreactivity”.

Turning to “QVQLVESGGGLVQAGGSLRLSCAASGRIFHRYAMGWYRQAPGKERELVASISRGDSTNYADSVKGRFTISRDNAKNTVYLQMNSLKPEDTAVYYCAAVPRRSGHQRWGATYYYWGQGTQVTVSS”, the “polyreactivity (PSR sort gate)” value is given as “high polyreactivity”.

Consider “QVQLVESGGGLVQAGGSLRLSCAASGFIFYNALGWYRQAPGKERELVAAISSGGNTNYADSVKGRFTISRDNAKNTVYLQMNSLKPEDTAVYYCNAGLYQYDGWANYIRYDYWGQGTQVTVSS”, for which the “polyreactivity (PSR sort gate)” value is listed as “low polyreactivity”.

On to “QVQLVESGGGLVQAGGSLRLSCAASGSTFKWNAMGWYRQAPGKERELVAAISKGSVNTYYADSVKGRFTISRDNAKNTVYLQMNSLKPEDTAVYYCAADRRYPALDYWGQGTQVTVSS”, for which the “polyreactivity (PSR sort gate)” value is recorded as “high polyreactivity”.

Take “QVQLVESGGGLVQAGGSLRLSCAASGFTFYRNAMGWYRQAPGKEREMVAAITWSGTSTYYADSVKGRFTISRDNAKNTVYFQMNSLKPEDTAVYFCNTVGYRGRSNSRFYYWGQGTQVTVSS”: the “polyreactivity (PSR sort gate)” value is “high polyreactivity”.

As for “QVQLVESGGGLVQAGGSLRLSCAASVRISESNDMGWYRQAPGKERELVAAISSSGGSTYYADSVKGRFTISRENAKNTVYLQMNSLKPEDTAVYYCNAVYYRTVLKIGVYEYDFWGQGTQVTVSW”, the “polyreactivity (PSR sort gate)” value was “low polyreactivity”.

As for “QLQLEESCGGLVQAGGSLRLSCAATGFIFGKYAMGWYRQAPGKQREFVAAITRSGGSTYYADSVKGRVTISRDNAKNTVFLQMFCLKPEDTAVYYCNARISERGWRYYYWGHGTQVTVSS”, the “polyreactivity (PSR sort gate)” value is on record as “high polyreactivity”.

“QVQLVESGGGLVQAGGSLLLSCAASGRILWRYAMGWYRQARGKERELVAGITYSGGRTYYADSVKVRFTISRDNAKNTVYLQMNSLKPEDTAVYYCNADYADSPYFYLLLDYWGQGTQVTVSS”: the “polyreactivity (PSR sort gate)” value is given as “low polyreactivity”.

Consider “QVQLVESGGGLVQAGGSLLLSCAASGFTFWNYAMGWYRQAPGKEMEFVASITWSGGSTYYADSVKGRFTISSDNAKNTVYLQMNSLKPEDTAVYYCAVGGSGYGLYGVGYALDYWGQGTQVTVSS”, for which the “polyreactivity (PSR sort gate)” value is given as “high polyreactivity”.

Regarding “QVQLVESGGGLVQAGGSLRLSCAASGSTFYRNAMGWYRQAPGKERELVATITFNGGSTYYADSVKGRFTISRDNAKNTVYLQMNSLKPEDTAVYYCAKSHAIYYWWDESWGQGTQVTVSS”, the “polyreactivity (PSR sort gate)” value is reported as “low polyreactivity”.

As to “QVQLVESGGGLVQAGGSLRLICSASGSIFYRNVKRWSRQAPGKEREFVATISRGGTTNYADSVKGRITISRDNAKYTVYLQMNSLKPEDTAVYYCAAPIGVVYVGKGYDYWGQGTQVTLSS”, the “polyreactivity (PSR sort gate)” value is on record as “low polyreactivity”.

Consider “QVQLVESGGGLDQAGGSLRLSCAASGSIFANNAMGWYRQAPGKERELVATIRSGGTTNYADSVKGRFTISRDNAKNTVYLQMNSLKPEDTAVYYCAAETVSYYSKYDYWGQGTQVTVSS”, for which the “polyreactivity (PSR sort gate)” value was “low polyreactivity”.

For “QVQLVESGGGLVQAGGSLRLSCSASGLTFNFNAMGWYRQAPGKERELVAAISYRAGSTYYADSVKGRFTISRDNAKNTVYLQMNSLKPEDTAVYYCAADGYYYVKSGTYWSDYWGQGTQVTVSS”, the “polyreactivity (PSR sort gate)” value is on record as “low polyreactivity”.

As to “QVQLVESGGGLLQAGGSLRLSCAASGRIFGVYAMGWYRQAPGKEMELVAAISWGGGSTYYADSVKGRFTISRDNAKNTVYLQMISLKPEDTAVFDCAADPPDGFYYTWDYDYWGQGTQVTVSS”, the “polyreactivity (PSR sort gate)” value is listed as “low polyreactivity”.

For the sequence “QVQLVESSGGLVQAGGSLRLSCAASGRTFSRNAMGWYRQAPGKERELVAAITYSGGTTYYADSVKGRFTISRDNAKNTVYLQMNSLKPEDTAVYYCATPSRKSGVGYPSYNYWGQGTQVTVSS”, the “polyreactivity (PSR sort gate)” value is recorded as “high polyreactivity”.

For the sequence “QVQLVESGGGLVQAGGSLRLSCAASGRTFSLNAMGWYRPAPGKEREFVAAISSTGGSTYYADSVKGRFTISRDNAKNTVYLQMNSLKPEDTAVYYCAKRSVYRTAQGRYSVAYDYWGQGTQVTVSS”, the “polyreactivity (PSR sort gate)” value was “high polyreactivity”.

Regarding “QVQLVESGGGLVQAGGSLRLSCAASGRILKYNALGWYRQAPGKERELVAAISYRGGSTYYADSVKGRFTISRDNAKNTVYLQMNSLKPEDTAVYYCNAGGGILNGPLFDYWGQGTQVTVSS”, the “polyreactivity (PSR sort gate)” value is listed as “low polyreactivity”.

For “QVQLVESGGGLVQAGGSLRLSCAASGPIFSDYTMGWYRQAPGKERELVAVISRRGTSTYYADSVKGRFTISRDNAKNTVDLQMNSLKPEDTAVYYCAADDNTYKFYYWGQGTQVTVSS”, the “polyreactivity (PSR sort gate)” value is listed as “high polyreactivity”.

For “QVQLVESGGGLVQAGGSLRLSCAASGITFYGYAMGWYRQAPGKERELVAAITRGGSTNYADSVKGRFTISRDNAKNTVYLQMNSLKPEDTAVYYCAAEYSVYWYYRYEYWGQGTQVTVSS”, the “polyreactivity (PSR sort gate)” value was “high polyreactivity”.

Consider “QVQLVESGGGLVQAGGSLRLSCAASGRIFVGYTMGWYRQAPGKERELVAAITSGGSTYYADSVKGRFTISRDNAKNTVYLQMNSLNPEDTADYYCNAAYQFDSYHLGGNRYEYWGQGTQETVSS”, for which the “polyreactivity (PSR sort gate)” value was “low polyreactivity”.

For the sequence “QVQLVESGGGLVQAGGSLRLSCAASGSIFGKNAMGWYRQAPGKDRELVAAISWSGGRTYYADSVKGRFTISRDNAKNSVYLQMNSLKPEDTAVYYCAASWWGVARGSSRKKYDYWGQGTQVTVSS”, the “polyreactivity (PSR sort gate)” value was “high polyreactivity”.

Regarding “QFQLVESGGGLDQAGGSLRLSCAASGRIFDGYVMGWYRQAPGKDRELVAAISSSGGRTYYADSVKGRFTISRDNAKNTVYLQMNCLKPDDTAVYYCAARYGRYRSVDYWGQGTQVTVSS”, the “polyreactivity (PSR sort gate)” value was “high polyreactivity”.

Take “QVQLVESGGGLVQAGGSLRLSCAASGSIFQRYAMGWYRQAPGKERELVAAISGSGGRTYYADSVKGRFTISRDNAKNTVYLQMNSLKPEDTAVYYCAKDFRLRGGYDYWGQGTQVTVSS”: the “polyreactivity (PSR sort gate)” value is “high polyreactivity”.
